Source: article PMC8040265, “A polysaccharide utilization locus from the gut bacterium Dysgonomonas mossii encodes functionally distinct carbohydrate esterases” (The Journal of Biological Chemistry, 2021)

What was measured:
Experiment in all cases: model substrate hydrolysis, Michaelis-Menten fit
Type in all cases: biochemical, Dysgonomonas mossii
Conditions in all cases: 37 °C
[1] = substrate: CC(=O)Oc1ccc2c(C)cc(=O)oc2c1
Excerpt: (§1) model substrate hydrolysis, Michaelis-Menten fit on DmCE1B

[2] = substrate: COC(=O)/C=C/c1cc(OC)c(O)c(OC)c1
Excerpt: as §1

[3] = substrate: COC(=O)/C=C/c1ccc(O)c(OC)c1
Excerpt: (§2) model substrate hydrolysis, Michaelis-Menten fit on DmCE1B_nt

[4] = substrate: CC(=O)Oc1ccc2c(C)cc(=O)oc2c1; remark: listed apart in the source
Excerpt: as §2

[5] = substrate: COC(=O)/C=C/c1cc(OC)c(O)c(OC)c1; remark: listed apart in the source
Excerpt: as §2

[6] = substrate: COC(=O)/C=C/c1ccc(O)cc1
Excerpt: as §2

[7] = substrate: CC(=O)Oc1ccc2c(C)cc(=O)oc2c1; remark: listed apart in the source
Excerpt: model substrate hydrolysis, Michaelis-Menten fit on DmCE1B_ct

[8] = substrate: CC(=O)Oc1ccc([N+](=O)[O-])cc1
Excerpt: (§3) model substrate hydrolysis, Michaelis-Menten fit on DmCE6A

[9] = substrate: CC(=O)Oc1ccc2c(C)cc(=O)oc2c1; remark: listed apart in the source
Excerpt: as §3

[10] = substrate: CC(=O)Oc1ccc([N+](=O)[O-])cc1; remark: listed apart in the source
Excerpt: (§4) model substrate hydrolysis, Michaelis-Menten fit on DmCE1A

[11] = substrate: CC(=O)Oc1ccc2c(C)cc(=O)oc2c1; remark: listed apart in the source
Excerpt: as §4

[12] = substrate: COC(=O)/C=C/c1cc(OC)c(O)c(OC)c1; remark: listed apart in the source
Excerpt: as §4

B1: DmCE1B (Dysgonomonas mossii DSM 22836) (protein)
chain: ISQNYKSVPNGYDIPRTGISHGQIDTVTYYSKTVDTNRKALVYTPPGYSKNKQYPVLYLLHGIGGDEKEWFSHGQPQVILDNLYADKKIVPMIVVLPNGRAMKDDRAIGNIMEAPKVEAFATFEKDLLNDLIPFIQKTYPVLKNQENRALAGLSMGGGQSLNFGLGNLDIFAWVGGFSSAPNTKTPEVLVPNPDDAKKKLKLLWISCGDKDGLLSFSKRTHDYLAKNQVPHVYQVIPNGYHDFNIWKQNLYMFSQLLFKPVTADLIEQYSYIPEEAEVGISASTNIPGAQYPQILSGNRVLFRIKAPDAKRVQVDLGKKYDMVREEEGSWAITTDPIVEGFHYYSILIDGVAVCDPASRTFYGMSRMASGIEIPEEGVDYYNLKNVPHGQIRQIRYFSDVTKAWRRAFVYTPAGYDANTSQRYPVLYLQHGGGEDETGWPNQGKMDAIIDNLIAEGKAKPMIVVMDNGYAVDPSASSANSPQGLRGLFQNSALEKVFINEIIPLVDKEFRTIADRDHRAMAGLSMGGFQAFQIAMTNLDKFAYVGGFSGGGIIEQGGDFSKMYNNVWSDVDTFNKRVKLIYLSIGTAEPTNMYQTVNNFHKEFEKAGIKHVYYESPGTSHEWLTWRRSLNQFAELLFK
notes: full length, signal peptide removed; CE1-CBM48-CE1; dimer in solution; pET28a-TEVc, IMAC purified from E. coli BL21(DE3)
[1]
  Km: 370 ± 60 µM
  kcat: 870 ± 3 s⁻¹
  kcat/Km: 2.3e+06 ± 400000 M⁻¹ s⁻¹
[2]
  Km: 360 ± 100 µM
  kcat: 5 ± 0.83 s⁻¹
  kcat/Km: 14000 ± 4500 M⁻¹ s⁻¹

B2: DmCE1B_nt (Dysgonomonas mossii DSM 22836) (protein)
chain: ISQNYKSVPNGYDIPRTGISHGQIDTVTYYSKTVDTNRKALVYTPPGYSKNKQYPVLYLLHGIGGDEKEWFSHGQPQVILDNLYADKKIVPMIVVLPNGRAMKDDRAIGNIMEAPKVEAFATFEKDLLNDLIPFIQKTYPVLKNQENRALAGLSMGGGQSLNFGLGNLDIFAWVGGFSSAPNTKTPEVLVPNPDDAKKKLKLLWISCGDKDGLLSFSKRTHDYLAKNQVPHVYQVIPNGYHDFNIWKQNLYMFSQLLFKPVTADLIEQYSYIPEEAEVGISASTNIPGAQYPQILSGNRVLFRIKAPDAKRVQVDLGKKYDMVREEEGSWAITTDPIVEGFHYYSILIDGVAVCDPASRTFYGMSRMASGIEIPE
notes: N-terminal CE1 domain + CBM48 (CBM48 is residues 294-393), signal peptide removed; IMAC purified from E. coli BL21(DE3)
[3]
  Km: 160 ± 30 µM
  kcat: 1.8 ± 0.13 s⁻¹
  kcat/Km: 11000 ± 2000 M⁻¹ s⁻¹
[4]
  Km: 300 ± 40 µM
  kcat: 630 ± 22 s⁻¹
  kcat/Km: 2.1e+06 ± 300000 M⁻¹ s⁻¹
[5]
  Km: 290 ± 70 µM
  kcat: 2.7 ± 0.34 s⁻¹
  kcat/Km: 9200 ± 2400 M⁻¹ s⁻¹
[6]
  Km: 310 ± 90 µM
  kcat: 0.61 ± 0.1 s⁻¹
  kcat/Km: 2000 ± 700 M⁻¹ s⁻¹

B3: DmCE1B_ct (Dysgonomonas mossii DSM 22836) (protein)
chain: AEVGISASTNIPGAQYPQILSGNRVLFRIKAPDAKRVQVDLGKKYDMVREEEGSWAITTDPIVEGFHYYSILIDGVAVCDPASRTFYGMSRMASGIEIPEEGVDYYNLKNVPHGQIRQIRYFSDVTKAWRRAFVYTPAGYDANTSQRYPVLYLQHGGGEDETGWPNQGKMDAIIDNLIAEGKAKPMIVVMDNGYAVDPSASSANSPQGLRGLFQNSALEKVFINEIIPLVDKEFRTIADRDHRAMAGLSMGGFQAFQIAMTNLDKFAYVGGFSGGGIIEQGGDFSKMYNNVWSDVDTFNKRVKLIYLSIGTAEPTNMYQTVNNFHKEFEKAGIKHVYYESPGTSHEWLTWRRSLNQFAELLFK
notes: dimer; IMAC purified from E. coli BL21(DE3)
[7]
  Km: 420 ± 100 µM
  kcat: 11 ± 0.71 s⁻¹
  kcat/Km: 26000 ± 6600 M⁻¹ s⁻¹

B4: DmCE6A (Dysgonomonas mossii DSM 22836) (protein)
chain: QDKFHVFLCFGQSNMEGHAKIEAQDTIDIDGRFMMLQTVDCPELGRFKGNWYKAIPPLARCHTGLSPADYFGRTMVANLPSDTKVGVINVAVGGCRIELFDKENFQSYVDQSPEWLKNMVNEYDGNPYVRLIEMAKLAQSQGGVIKGILLHQGESNNGETDWPEKVRKVYDNILKDLNFEPNSIPLLAGELLDEEQYGACANMNLIINTLPNVIPNAHVISSKGCEGVKDRLHFSAAGYRTLGSRYAEKMLQLYNENSLKK
notes: signal peptide removed; single CE6 domain; pET28a-TEVc, IMAC purified from E. coli BL21(DE3)
[8]
  Km: 180 ± 10 µM
  kcat: 59 ± 0.87 s⁻¹
  kcat/Km: 320000 ± 20000 M⁻¹ s⁻¹
[9]
  Km: 29 ± 3 µM

B5: DmCE1A (Dysgonomonas mossii DSM 22836) (protein)
chain: QDLEGSISSEYNIPEGQYPIVNKDLSATFRIQAPSAQSMQVDICGKKYPMTKDAAGIWEATTDPLVVGFHYYFLLIDGVSVVDPASQTFFGCGRMASGIEIPEPRAESAYYSYQKDIPHGQVRECYYFSKVEGKQRRCFLYTPAEYETNPTKRYPVLYLQHGMGEDETGWSRQGKMAFILDNQISEKKCVPMIVVMDYGNCGYIHGTKKGESQKEFGALFTPILINDIIPYIDSNFRTLSDRDNRAMAGLSWGGHQAFETTLNNIDKFSHIGAFSGALFFLKEDNLKKAYNGVFAQPNVFNKKVHTLFLGMGSEEGMGSKRISEFLKANGINNTYYESAGTHHEWLTWRRCLNQFLPLIFKQN
notes: signal peptide removed; N-terminal CBM48 + CE1 domain; pET28a-TEVc, IMAC purified from E. coli BL21(DE3)
[10]
  Km: 4400 ± 670 µM
  kcat: 1.03 ± 0.07 s⁻¹
  kcat/Km: 230 ± 40 M⁻¹ s⁻¹
[11]
  Km: 550 ± 60 µM
  kcat: 38.6 ± 1.26 s⁻¹
  kcat/Km: 70000 ± 8000 M⁻¹ s⁻¹
[12]
  Km: 180 ± 40 µM
  kcat: 0.13 ± 0.01 s⁻¹
  kcat/Km: 700 ± 200 M⁻¹ s⁻¹
